How the values were obtained:
[1] = target: human ameloblastin full-length isoform I (AMBN ISO I) (human) (UniProt Q9NP70); assay: AUC; sedimentation velocity, 23 uM protein, 20 °C, 10 mM Tris-HCl pH 7.4, 100 mM NaCl, no Ca2+; c(s) with bimodal f/f0; average size of heterogeneous oligomers
[2] = target: human ameloblastin full-length isoform I (AMBN ISO I) (human) (UniProt Q9NP70); assay: AUC; sedimentation velocity, 23 uM protein, 20 °C, 10 mM Tris-HCl pH 7.4, 100 mM NaCl, with 10 mM CaCl2; c(s) with bimodal f/f0; average size of heterogeneous oligomers
[3] = target: human ameloblastin full-length isoform II (AMBN ISO II) (human) (UniProt Q9NP70); assay: AUC; sedimentation velocity, 23 uM protein, 20 °C, 10 mM Tris-HCl pH 7.4, 100 mM NaCl, no Ca2+; c(s) with bimodal f/f0; average size of heterogeneous oligomers
[4] = target: human ameloblastin full-length isoform II (AMBN ISO II) (human) (UniProt Q9NP70); assay: AUC; sedimentation velocity, 23 uM protein, 20 °C, 10 mM Tris-HCl pH 7.4, 100 mM NaCl, with 10 mM CaCl2; c(s) with bimodal f/f0; average size of heterogeneous oligomers

Substance | stoichiometry N [1] [monomers] | stoichiometry N [2] [monomers] | stoichiometry N [3] [monomers] | stoichiometry N [4] [monomers]
human ameloblastin full-length isoform I (AMBN ISO I) (from UniProt Q9NP70-1 27-447) (natural protein) | 28 | 33 |  | 
human ameloblastin full-length isoform II (AMBN ISO II) (from UniProt Q9NP70-2 27-432) (natural protein) |  |  | 19 | 20

From publication PMC7730623
